Test results taken from paper PMC9332573.

Assays:
[1] = biological target: C157S mutant of hDHHC3-Δ35 (hDHHS3-Δ35), C-terminal Twin-Strep tagged (human) (UniProt Q9NYG2); assay: SDS-PAGE; purified hDHHS3-Δ35 on SDS-PAGE; dimeric band at ≈50 kDa (Figure S5A)
[2] = biological target: C157S mutant of hDHHC3-Δ35 (hDHHS3-Δ35), C-terminal Twin-Strep tagged (human) (UniProt Q9NYG2); assay: cryo-EM 2D classification; hDHHS3-Δ35 in GDN micelles from SEC peak 1; 200 kV Talos Arctica; 2D class averages with RELION 3; no 3D reconstruction

C157S mutant of hDHHC3-Δ35 (hDHHS3-Δ35), C-terminal Twin-Strep tagged (from UniProt Q9NYG2-2 36-299) (enzyme)
oligomeric state (number of subunits) [1]: 2 | stoichiometry N [2]: 2
